Laboratory results as given in publication PMC10711565.
Where two headings read alike, the source gives them in different places.

B1: HCV45:miR-122 complex (structured_RNA)
RNA 1: GCCAGCCCCCUGAUGGGGGCGACACUCCACCAUGAAUCACUCCCC
RNA 2: UGGAGUGUGACAAUGGUGUUUG

Tests used:
Test in all cases: fluorescence anisotropy
PCBP2 [1] = target: T1, PCBP2 (UniProt Q15366 1-365)
PCBP2 [2] = target: T1, PCBP2; remark: listed apart in the source
PCBP2 [3] = target: T1, PCBP2; remark: listed apart in the source

T1 sequence (Q15366 whole entry): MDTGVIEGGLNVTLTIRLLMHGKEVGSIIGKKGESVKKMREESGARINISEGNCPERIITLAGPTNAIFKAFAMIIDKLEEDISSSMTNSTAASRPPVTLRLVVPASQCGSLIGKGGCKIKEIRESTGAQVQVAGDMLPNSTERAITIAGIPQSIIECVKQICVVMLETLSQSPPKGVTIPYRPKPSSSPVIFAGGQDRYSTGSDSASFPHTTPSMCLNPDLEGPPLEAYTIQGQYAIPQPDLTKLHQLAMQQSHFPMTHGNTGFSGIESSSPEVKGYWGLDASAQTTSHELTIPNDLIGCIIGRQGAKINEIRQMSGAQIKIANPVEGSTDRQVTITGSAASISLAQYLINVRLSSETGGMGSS

Binder | Kd (PCBP2 [1]) [µM] | other results
GCCAGCCCCCUGAUGGGGGCGACACUCCACCAUGAAUCACUCCCC (structured_RNA) [HCV45] | 0.667 ± 0.034 | –
B1 | – | Kd (PCBP2 [2]): 9.88 ± 1.6 µM
UGGAGUGUGACAAUGGUGUUUG (ssRNA) [miR-122] | 5.33 ± 0.47 | –
GCCAGCCCCCUGAUGGGGGCGACACUCCACCAUGAAUCACUCCCCUG (structured_RNA) [HCV47] | – | binding result (PCBP2 [3]): binds
